Test results from patent publication US20250163182A1 (Janssen / Centocor, published 2025).

Tests used:
human CD3 on T cells [1] = target: T1, human CD3 on T cells (human, UniProt P07766 23-207); test: flow cytometry on human T cells, donor 888668965
T1 construct: on T cells it stands in the TCR-CD3 complex; also called human T cells; T cells isolated from healthy human donors

ENPP2 on CHOK1 cells = ENPP2 on CHOK1 cells (UniProt Q13822 36-863); test: flow cytometry on CHO cells overexpressing ENPP2
human ENPP3 on cells = target: T2, human ENPP3 on cells (human, UniProt O14638 1-875); test: cell-based or functional assay
T2 sequence (looked up): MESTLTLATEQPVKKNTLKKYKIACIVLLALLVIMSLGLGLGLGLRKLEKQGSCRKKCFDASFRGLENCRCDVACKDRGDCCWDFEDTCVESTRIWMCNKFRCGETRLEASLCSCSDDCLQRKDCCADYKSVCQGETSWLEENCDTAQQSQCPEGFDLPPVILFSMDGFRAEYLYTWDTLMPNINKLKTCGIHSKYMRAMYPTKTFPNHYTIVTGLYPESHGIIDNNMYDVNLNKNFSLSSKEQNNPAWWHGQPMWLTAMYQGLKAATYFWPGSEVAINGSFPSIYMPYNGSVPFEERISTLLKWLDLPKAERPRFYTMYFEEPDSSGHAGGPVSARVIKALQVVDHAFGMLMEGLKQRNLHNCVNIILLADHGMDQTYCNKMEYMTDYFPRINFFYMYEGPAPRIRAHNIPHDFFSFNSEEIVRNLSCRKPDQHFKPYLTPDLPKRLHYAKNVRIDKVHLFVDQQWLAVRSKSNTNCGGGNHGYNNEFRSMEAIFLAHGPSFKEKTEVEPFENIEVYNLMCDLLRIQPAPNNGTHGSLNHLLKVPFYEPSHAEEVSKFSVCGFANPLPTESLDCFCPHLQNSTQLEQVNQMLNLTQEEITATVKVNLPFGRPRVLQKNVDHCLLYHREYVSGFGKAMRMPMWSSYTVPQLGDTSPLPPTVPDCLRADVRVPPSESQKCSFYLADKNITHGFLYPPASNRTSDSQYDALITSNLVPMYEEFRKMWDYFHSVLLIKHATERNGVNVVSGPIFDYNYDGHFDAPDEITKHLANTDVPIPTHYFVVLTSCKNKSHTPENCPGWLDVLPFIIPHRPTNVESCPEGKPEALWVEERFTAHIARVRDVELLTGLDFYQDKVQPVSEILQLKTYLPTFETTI

human CD3 on T cells [2] = target: T1, human CD3 on T cells; test: flow cytometry on human T cells, donor 110042593
ENPP1 on CHOK1 cells = target: T3, ENPP1 on CHOK1 cells (UniProt P22413 1-925, limits assumed); test: flow cytometry on CHO cells overexpressing ENPP1
T3 construct: whole, on cells; also called ectonucleotide pyrophosphatase/phosphodiesterase family member 1; CHO ENPP1 OE
T3 sequence (looked up): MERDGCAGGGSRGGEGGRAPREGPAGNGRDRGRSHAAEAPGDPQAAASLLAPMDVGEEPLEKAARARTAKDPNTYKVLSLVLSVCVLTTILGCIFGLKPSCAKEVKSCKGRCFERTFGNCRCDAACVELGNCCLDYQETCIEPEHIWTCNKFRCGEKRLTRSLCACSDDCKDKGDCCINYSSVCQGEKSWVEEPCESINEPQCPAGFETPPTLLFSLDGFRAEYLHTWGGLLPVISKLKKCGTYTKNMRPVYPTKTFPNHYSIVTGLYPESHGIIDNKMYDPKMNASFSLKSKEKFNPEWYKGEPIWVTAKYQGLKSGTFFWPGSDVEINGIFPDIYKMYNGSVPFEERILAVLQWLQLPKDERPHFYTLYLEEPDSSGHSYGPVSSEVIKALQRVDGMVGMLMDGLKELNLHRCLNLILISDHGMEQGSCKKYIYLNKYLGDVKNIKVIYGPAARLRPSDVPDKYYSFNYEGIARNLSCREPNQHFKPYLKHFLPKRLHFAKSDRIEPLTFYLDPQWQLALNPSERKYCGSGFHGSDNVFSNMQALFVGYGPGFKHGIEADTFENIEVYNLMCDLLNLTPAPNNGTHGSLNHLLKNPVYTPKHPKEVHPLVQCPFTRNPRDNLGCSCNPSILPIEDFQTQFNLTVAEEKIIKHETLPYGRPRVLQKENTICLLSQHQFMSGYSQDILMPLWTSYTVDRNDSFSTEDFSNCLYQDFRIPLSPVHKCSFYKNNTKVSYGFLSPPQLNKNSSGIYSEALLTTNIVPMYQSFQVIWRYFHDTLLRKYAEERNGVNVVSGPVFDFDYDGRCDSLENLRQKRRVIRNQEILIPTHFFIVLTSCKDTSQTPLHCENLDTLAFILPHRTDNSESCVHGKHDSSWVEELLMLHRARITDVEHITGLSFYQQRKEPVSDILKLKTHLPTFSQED

T1 sequence (P07766 23-207 limits assumed): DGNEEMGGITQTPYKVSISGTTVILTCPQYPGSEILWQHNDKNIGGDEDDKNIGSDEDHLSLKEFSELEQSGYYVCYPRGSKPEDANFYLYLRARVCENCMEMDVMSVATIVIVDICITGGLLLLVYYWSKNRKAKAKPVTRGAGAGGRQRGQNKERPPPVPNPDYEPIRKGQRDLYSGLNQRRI

B1: NPP3B815 (bispecific antibody, human IgG1, kappa, L234A L235A)
heavy 1: EIVLTQSPATLSASPGERVTLSCSASSSVSYMNWYQQKPGCAPRRWIYDSSKLASGVPARFSGSGSGRDYTLTISSLEPEDFAVYYCQQWSRNPPTFGGGTKVEIKGGGSGGSGGCPPCGGSGGQVQLVQSGAEVKKPGSSVKVSCKASGYTFTRSTMHWVKQAPGQGLEWIGYINPSSAYTNYNQKFQGRVTLTADKSTSTAYMELSSLRSEDTAVYYCASPQVHYDYAGFPYWGCGTLVTVSSEPKSSDKTHTCPPCPAPEAAGGPSVFLFPPKPKDTLMISRTPEVTCVVVSVSHEDPEVKFNWYVDGVEVHNAKTKPREEQYNSTYRVVSVLTVLHQDWLNGKEYKCKVSNKALPAPIEKTISKAKGQPREPQVYTLPPSREEMTKNQVSLWCLVKGFYPSDIAVEWESNGQPENNYKTTPPVLDSDGSFFLYSKLTVDKSRWQQGNVFSCSVMHEALHNHYTQKSLSLSPGK
heavy 2: EVQLVESGGGRVKPGGSLRLSCAASGFTFSDYSMNWVRQAPGKGLEWVSSISSISSYVKYADSVKGRFTMSRDNAKNSLFLQMNSLRDEDMAVYYCARGHYFDYWGQGTLVTVSSASTKGPSVFPLAPSSKSTSGGTAALGCLVKDYFPEPVTVSWNSGALTSGVHTFPAVLQSSGLYSLSSVVTVPSSSLGTQTYICNVNHKPSNTKVDKKVEPKSCDKTHTCPPCPAPEAAGGPSVFLFPPKPKDTLMISRTPEVTCVVVSVSHEDPEVKFNWYVDGVEVHNAKTKPREEQYNSTYRVVSVLTVLHQDWLNGKEYKCKVSNKALPAPIEKTISKAKGQPREPQVYTLPPSREEMTKNQVSLSCAVKGFYPSDIAVEWESNGQPENNYKTTPPVLDSDGSFFLVSKLTVDKSRWQQGNVFSCSVMHEALHNRFTQKSLSLSPGK
light: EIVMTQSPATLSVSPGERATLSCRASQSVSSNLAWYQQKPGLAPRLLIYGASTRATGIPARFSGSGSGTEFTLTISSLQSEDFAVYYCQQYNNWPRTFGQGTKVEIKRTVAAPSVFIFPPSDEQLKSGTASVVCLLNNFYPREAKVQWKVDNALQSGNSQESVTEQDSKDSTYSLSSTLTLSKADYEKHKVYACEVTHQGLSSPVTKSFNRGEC
notes: HC2 carries the NPP3B56 Fab and the hole T366S, L368A, Y407V; Fc with L234A, L235A, D265S; The CPPC linker cysteines form disulfides with engineered Cys at L42 and H105 (Chothia); also called NPP3B56×CD3B2030-N106A; ENPP3×CD3 (NPP3B815)
Human CD3 on T cells [1]
  EC50: 197 nM
ENPP2 on CHOK1 cells
  binding result: no binding (tested: 100 nM)
Human ENPP3 on cells
  T-cell activation (Flow Cytometry) EC50; A704; E:T 3:1: 0.011 nM
  T-cell activation (Flow Cytometry) EC50; HepG2; E:T 3:1: 0.041 nM
  T-cell activation (Flow Cytometry) EC50; VMRCRCW; E:T 3:1: 0.018 nM
  Tumor cell killing (Incucyte) EC50; A704; E:T 3:1: 0.03 nM
  Tumor cell killing (Incucyte) EC50; HepG2; E:T 3:1: 0.53 nM
  Tumor cell killing (Incucyte) EC50; TUHR4TKB; E:T 3:1: 0.05 nM
  Tumor cell killing (Incucyte) EC50; TUHR10TKB; E:T 3:1: 0.02 nM
  Tumor cell killing (Incucyte) EC50; VMRCRCW; E:T 3:1: 0.13 nM
Human CD3 on T cells [2]
  EC50: 146 nM
ENPP1 on CHOK1 cells
  binding result: no binding (tested: 100 nM)
